Laboratory results reported in publication doi:10.1101/2020.10.13.337493 (bioRxiv, 2020).
Values belong to the molecule of their own block, whether it stands above or below them.

B2: N-PH-FFAT construct of OSBP (domain or fragment, human, UniProt P22059 1-408, looked up)
chain: MAATELRGVVGPGPAAIAALGGGGAGPPVVGGGGGRGDAGPGSGAASGTVVAAAAGGPGPGAGGVAAAGPAPAPPTGGSGGSGAGGSGSAREGWLFKWTNYIKGYQRRWFVLSNGLLSYYRSKAEMRHTCRGTINLATANITVEDSCNFIISNGGAQTYHLKASSEVERQRWVTALELAKAKAVKMLAESDESGDEESVSQTDKTELQNTLRTLSSKVEDLSTCNDLIAKHGTALQRSLSELESLKLPAESNEKIKQVNERATLFRITSNAMINACRDFLMLAQTHSKKWQKSLQYERDQRIRLEETLEQLAKQHNHLERAFRGATVLPANTPGNVGSGKDQCCSGKGDMSDEDDENEFFDAPEIITMPENLGHKRTGSNISGASSDISLDEQYKHQLEETKKEKRTR

How the values were obtained:
[1] = biological target: OSBP Central Core (CC), wild type (human) (UniProt P22059); assay: SEC
[2] = biological target: OSBP CC[V199C] construct (V199C/C224A/C276A), labelled with AF-488 or AF-568 (human) (UniProt P22059); assay: FRET or BRET
[3] = biological target: the molecule itself; assay: cryo-EM structure
[4] = biological target: B2; assay: membrane tethering in reconstituted contact sites, seen by cryo-EM and cryo-ET

- stoichiometry N [1]: 2
Molecule: OSBP Central Core (CC), wild type (from UniProt P22059 199-324) (domain or fragment)

- half-time of monomer exchange [2]: 100 min
Molecule: OSBP CC[V199C] construct (V199C/C224A/C276A), labelled with AF-488 or AF-568 (from UniProt P22059 199-324) (domain or fragment)

- binding result [4]: binds
B1: VAP-A (natural protein, human, UniProt Q9P0L0 8-249, looked up)
chain: MAKHEQILVLDPPTDLKFKGPFTDVVTTNLKLRNPSDRKVCFKVKTTAPRRYCVRPNSGIIDPGSTVTVSVMLQPFDYDPNEKSKHKFMVQTIFAPPNTSDMEAVWKEAKPDELMDSKLRCVFEMPNENDKLNDMEPSKAVPLNASKQDGPMPKPHSVSLNDTETRKLMEECKRLQGEMMKLSEENRHLRDEGLRLRKVAHSDKPGSTSTASFRDNVTSPLPSLLVVIAAIFIGFFLGKFIL
- stoichiometry N [3]: 2

Molecule: B2
- stoichiometry N [3]: 2
